# Assay results as given in the RNAGym collection of RNA variant scans (doi:10.1073/pnas.2313332121).
# B1: TPR t1 (parent)
# chain: GACCAAUCUGCCCUCAGAGCUCGAGAACAUCUUCGGAUGCAGAGGAGGCAGGCUUCGGUGGCGCGAUAGCGCCAACGUCCUCAACCUCCAAUGCAUCCCACCACAUGAUGAUGCCUGAAGAGCCUUGGUUUUUUG
# Variants of: B1
# Experiment: polymerase ribozyme fitness, log enrichment relative to wild type (log ratio); higher = more active; in vitro selection for triplet polymerase activity
# How it was run: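 Both subunits of a heterodimeric triplet polymerase ribozyme were given their own mutant library, built by PCR and transcribed. Each library was annealed with a biotinylated primer, the partner subunit and triplets, incubated frozen at −7 °C, and its extended constructs gel-excised, captured on streptavidin beads and amplified by RT-PCR, all in one round done in triplicate. Fitness is the logarithm of genotype enrichment relative to wild-type enrichment, with replicates averaged by inverse-variance weighting. That logarithm is base 2, and Illumina-sequenced genotypes needed ≥10 input reads and ≥1 read per output.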
row,Variant,polymerase ribozyme fitness (log ratio)
1,GACCAAUCUGCCCUCAGAGCUCGAGAACAUCUUCGGAUGCAGAGGAGGCAGGCUUCGGUGGCGCGAUAGCGCCAACGUCCUCCACCUCCAAUGCAUCCCACCACAUUAUGAUACCUGAAGAGCCUUGGUUUUUUG [A83C G107U G113A],-3.74
2,GACCAAUCUGCCCUCAGAGCUCGAGAACAUCUUCGGAUGCAGAGGAGGCAGGCUUCGGUGGCGCGAUAGCGCCAACGUCCUCGACCUCCAAUACAUCCCACCACAUGAUGAUGCCUGAAUAGCCUUGGUUUUUUG [A83G G93A G120U],-1.68
3,GACCAAUCUGCCCUCAGAGCUCGAGAACAUCUUCGGAUGCAGAGGAGGCAGGCUUCGGUGGCGCGAUAGCGCCAACGUCCUCAUCCUCCAAUGCAUCCCACCACAUGAUGAUGCCUGAAGAGCCUUGGUCUUUUG [A84U U130C],0.517
4,GACCAAUCUGCCCUCAGAGCUCGAGAACAUCUUCGGAUGCAGAGGAGGCAGGCUUCGGUGGCGCGAUAGCGCCAACGUCCUCAGCCUCCAAUGCAUCCCACCACAUGAUGAUGCCUGAAGAGCCUUGGGUUUUUG [A84G U129G],-1.32
5,GACCAAUCUGCCCUCAGAGCUCGAGAACAUCUUCGGAUGCAGAGGAGGCAGGCUUCGGUGGCGCGAUAGCGCCAACGUCCUCAUCCUCCAAUGCAUCCCACCACAUGAGGAUGCCUGAAGAGCCUUGGUUUUUUG [A84U U109G],-4.27
6,GACCAAUCUGCCCUCAGAGCUCGAGAACAUCUUCGGAUGCAGAGGAGGCAGGCUUCGGUGGCGCGAUAGCGCCAACGUCCUCAUCCUCCAAUGCAUCCCACCACAGGAUGAUGCCUGGAGAGCCUUGGUUUUUUG [A84U U106G A118G],-1.83
7,GACCAAUCUGCCCUCAGAGCUCGAGAACAUCUUCGGAUGCAGAGGAGGCAGGCUUCGGUGGCGCGAUAGCGCCAACGUCCUCGACCUCCGAUGCAUCCCACCACAUGAUGAUGCCUGAAGAGCCUUGGUUUUUUG [A83G A90G],-0.465
8,GACCAAUCUGCCCUCAGAGCUCGAGAACAUCUUCGGAUGCAGAGGAGGCAGGCUUCGGUGGCGCGAUAGCGCCAACGUCCUCAGCCUUCAAUGCAUCCCACCACAUGAUGAUGCCGGAAGAGCAUUGGUUUUUUG [A84G C88U U116G C124A],-0.458
9,GACCAAUCUGCCCUCAGAGCUCGAGAACAUCUUCGGAUGCAGAGGAGGCAGGCUUCGGUGGCGCGAUAGCGCCAACGUCCUCCACCUCCAAUGCAUCCCACCACAUGAUGAGCCCUGAAUAGCCUUGGUCUUUUG [A83C U112G G113C G120U U130C],-7.33
10,GACCAAUCUGCCCUCAGAGCUCGAGAACAUCUUCGGAUGCAGAGGAGGCAGGCUUCGGUGGCGCGAUAGCGCCAACGUCCUCUACCUCCAAUGCAUCCCACCACAUGAUGAUGCUUGAAGAGGCUUGGUUUUUUU [A83U C115U C123G G135U],-1.98
11,GACCAAUCUGCCCUCAGAGCUCGAGAACAUCUUCGGAUGCAGAGGAGGCAGGCUUCGGUGGCGCGAUAGCGCCAACGUCCUCAUCCUCCAAUGCAUACCACCACAUGAUGAUGCCUGAAGAGCCUUGGUUUUUUG [A84U C97A],-5.72
12,GACCAAUCUGCCCUCAGAGCUCGAGAACAUCUUCGGAUGCAGAGGAGGCAGGCUUCGGUGGCGCGAUAGCGCCAACGUCCUCUACCUCCAAUGCAUCCCACCACAUAAUGAUGCCUGAAGAGCCUUGGUUUUUUG [A83U G107A],-5.83
13,GACCAAUCUGCCCUCAGAGCUCGAGAACAUCUUCGGAUGCAGAGGAGGCAGGCUUCGGUGGCGCGAUAGCGCCAACGUCCUCAUCCUCCAAUGCAUCCCAUCACAUGAUGAUGCCUGAAGAACCUUGGUUUAUUG [A84U C101U G122A U132A],-1.15
14,GACCAAUCUGCCCUCAGAGCUCGAGAACAUCUUCGGAUGCAGAGGAGGCAGGCUUCGGUGGCGCGAUAGCGCCAACGUCCUCUACCUCCAAUGCAUCCCACCACAUGAUGAUGCCUGAAAAGCCAUGGUUUUUUG [A83U G120A U125A],0.929
15,GACCAAUCUGCCCUCAGAGCUCGAGAACAUCUUCGGAUGCAGAGGAGGCAGGCUUCGGUGGCGCGAUAGCGCCAACGUCCUCUACCUCCAAUGCAUCCCACCACAUGAUGAUGCCUGAAGAGCCAUGGUUUUUUG [A83U U125A],-0.797
16,GACCAAUCUGCCCUCAGAGCUCGAGAACAUCUUCGGAUGCAGAGGAGGCAGGCUUCGGUGGCGCGAUAGCGCCAACGUCCUCGACCUCAAAUGCAUCCCACCACAUGAUGAUGCCUGAAGAGCCUUGGUUUUUUG [A83G C89A],-3.89
17,GACCAAUCUGCCCUCAGAGCUCGAGAACAUCUUCGGAUGCAGAGGAGGCAGGCUUCGGUGGCGCGAUAGCGCCAACGUCCUCGACAUCCAAUGCAUCCCACCACAUGAUGAUACCUGAAGAGCCUUGGUUUUUUG [A83G C86A G113A],-2.01
18,GACCAAUCUGCCCUCAGAGCUCGAGAACAUCUUCGGAUGCAGAGGAGGCAGGCUUCGGUGGCGCGAUAGCGCCAACGUCCUCCACCUCCAAAGCAUCCCACCACAUGAUGAUGACUGAAGAGCCUUGCUUUUUUG [A83C U92A C114A G128C],-6.64
19,GACCAAUCUGCCCUCAGAGCUCGAGAACAUCUUCGGAUGCAGAGGAGGCAGGCUUCGGUGGCGCGAUAGCGCCAACGUCCUCAUCCUCCAAUGCAUCCCACCACAUGAUGAUGCCUGAAGAGCCUUGGUUUUUUG [A84U],-0.405
20,GACCAAUCUGCCCUCAGAGCUCGAGAACAUCUUCGGAUGCAGAGGAGGCAGGCUUCGGUGGCGCGAUAGCGCCAACGUCCUCAGCCUCCAAUGCAUCCCACCACAUGAUGAUGCCUGAAGAGCCUUGGUUUUUUG [A84G],-0.482
21,GACCAAUCUGCCCUCAGAGCUCGAGAACAUCUUCGGAUGCAGAGGAGGCAGGCUUCGGUGGCGCGAUAGCGCCAACGUCCUCACCCUCCAAUGCAUCCCACCACAUGAUGAUGCCUGAAGAGCCUUGGUUUUUUG [A84C],-0.112

row,Variant,polymerase ribozyme fitness (log ratio)
1,GACCAAUCUGCCCUCAGAGCUCGAGAACAUCUUCGGAUGCAGAGGAGGCAGGCUUCGGUGGCGCGAUAGCGCCAACGUCCUCACCCUCCAAUGCAUCCCACCACAUGAUGAUGGCUGAAGAGCCUUAGUUUUUUG [A84C C114G G127A],-4.73
2,GACCAAUCUGCCCUCAGAGCUCGAGAACAUCUUCGGAUGCAGAGGAGGCAGGCUUCGGUGGCGCGAUAGCGCCAACGUCCUCUACCUCCAAUGCAUCCCACCACAUGAUGAUGCCUGAAUAGCCUUGGUCUUUUG [A83U G120U U130C],-0.376
3,GACCAAUCUGCCCUCAGAGCUCGAGAACAUCUUCGGAUGCAGAGGAGGCAGGCUUCGGUGGCGCGAUAGCGCCAACGUCCUCAGCCUCCAAUGCAUCCCACCACAUGAUGAUGCCUGGAGAGCCUUGGUUUUUUG [A84G A118G],-0.615
4,GACCAAUCUGCCCUCAGAGCUCGAGAACAUCUUCGGAUGCAGAGGAGGCAGGCUUCGGUGGCGCGAUAGCGCCAACGUCCUCGACCUCAAAUGCAUCCCACCACAGGAUGAUGCCUGAAGAGCCUUGGUUUUUUG [A83G C89A U106G],-4.3
5,GACCAAUCUGCCCUCAGAGCUCGAGAACAUCUUCGGAUGCAGAGGAGGCAGGCUUCGGUGGCGCGAUAGCGCCAACGUCCUCAUCCUCCAAUGCAUCCCACCACAUGAUGAUGCCUCAAGAGCGUUGGUUUUUUG [A84U G117C C124G],-1.4
6,GACCAAUCUGCCCUCAGAGCUCGAGAACAUCUUCGGAUGCAGAGGAGGCAGGCUUCGGUGGCGCGAUAGCGCCAACGUCCUCUACCUCCAAUGCAUCUCACCACAUGAUGAUGCCUGAAGAGCCUUGGUCUUUUG [A83U C98U U130C],-0.673
7,GACCAAUCUGCCCUCAGAGCUCGAGAACAUCUUCGGAUGCAGAGGAGGCAGGCUUCGGUGGCGCGAUAGCGCCAACGUCCUCCACCUCCAAUGCAUCCCACCACAUGAUUAUGCCUUAAGAGCCUUGGUUUUUUG [A83C G110U G117U],-5.17
8,GACCAAUCUGCCCUCAGAGCUCGAGAACAUCUUCGGAUGCAGAGGAGGCAGGCUUCGGUGGCGCGAUAGCGCCAACGUCCUCAUCCUCCAAUGCAUCCCACCACAUGAUGAUGCCUGAAGAGCCUUGAUUUUUUG [A84U G128A],-1.72
9,GACCAAUCUGCCCUCAGAGCUCGAGAACAUCUUCGGAUGCAGAGGAGGCAGGCUUCGGUGGCGCGAUAGCGCCAACGUCCUCACCCUCCAAUGCAUCCCACCACAUGAUGAUGCCCGAAGAGCCUUGGUUUUUUG [A84C U116C],0.658
10,GACCAAUCUGCCCUCAGAGCUCGAGAACAUCUUCGGAUGCAGAGGAGGCAGGCUUCGGUGGCGCGAUAGCGCCAACGUCCUCCACCUCCAAUGCAUCCCACCACAUGAUGAUUCCUGAAGAGCCUUGGUUUUUUG [A83C G113U],-3.09
11,GACCAAUCUGCCCUCAGAGCUCGAGAACAUCUUCGGAUGCAGAGGAGGCAGGCUUCGGUGGCGCGAUAGCGCCAACGUCCUCAUCCUCCAAUGCAUCCCACCACAUGAUGAUGCAUGAAGAGCCGUGGUUUUUUG [A84U C115A U125G],-0.872
12,GACCAAUCUGCCCUCAGAGCUCGAGAACAUCUUCGGAUGCAGAGGAGGCAGGCUUCGGUGGCGCGAUAGCGCCAACGUCCUCACCCUCCAAUGCAUCCCACCACAUGAUGAUGCCUGAAGAGCGUUGGUUUUUUG [A84C C124G],1.9
13,GACCAAUCUGCCCUCAGAGCUCGAGAACAUCUUCGGAUGCAGAGGAGGCAGGCUUCGGUGGCGCGAUAGCGCCAACGUCCUCACCCUCCAAUGCAUCCCACCACAUGAUGAUGCCUGAAGAGCAUUGGUUUUUUG [A84C C124A],1.76
14,GACCAAUCUGCCCUCAGAGCUCGAGAACAUCUUCGGAUGCAGAGGAGGCAGGCUUCGGUGGCGCGAUAGCGCCAACGUCCUCGACCUCCAAUGCAUUCCACCACAUGAUGAUGCAUGAAGAGCCUUGGUUUUUUC [A83G C97U C115A G135C],-1.7
15,GACCAAUCUGCCCUCAGAGCUCGAGAACAUCUUCGGAUGCAGAGGAGGCAGGCUUCGGUGGCGCGAUAGCGCCAACGUCCUCAUCCUCCAAUGCAUCCCACCACAUGAUGAUGCCUGAAGAGCCUUAGUUUUUUG [A84U G127A],-0.952
16,GACCAAUCUGCCCUCAGAGCUCGAGAACAUCUUCGGAUGCAGAGGAGGCAGGCUUCGGUGGCGCGAUAGCGCCAACGUCCUCACGCUCCAAUACAUCCCAUCACAUGAUGAUGCCUGAAGAGCCUUGGUUUUUUG [A84C C85G G93A C101U],-2.22
17,GACCAAUCUGCCCUCAGAGCUCGAGAACAUCUUCGGAUGCAGAGGAGGCAGGCUUCGGUGGCGCGAUAGCGCCAACGUCCUCAGCCUUCAAUGCAUCCCACCACAUGAUGAUGCCUGAAGAGCCUUGGUUUUUUG [A84G C88U],-0.134
18,GACCAAUCUGCCCUCAGAGCUCGAGAACAUCUUCGGAUGCAGAGGAGGCAGGCUUCGGUGGCGCGAUAGCGCCAACGUCCUCAUCCUCCAAUGCAUCCCACCACAUGAUGAGGCCUGAAGAGCCUUGGUUUUUUG [A84U U112G],0.742
19,GACCAAUCUGCCCUCAGAGCUCGAGAACAUCUUCGGAUGCAGAGGAGGCAGGCUUCGGUGGCGCGAUAGCGCCAACGUCCUCAUCCUCCAAUGCAUCCCACCACAUGAUGAUGCAUGAAGAGCCUUGGUUUUUUG [A84U C115A],-0.457
20,GACCAAUCUGCCCUCAGAGCUCGAGAACAUCUUCGGAUGCAGAGGAGGCAGGCUUCGGUGGCGCGAUAGCGCCAACGUCCUCAUCCUCCAAUGCAUCCCACCACAAGAUGAUGCCUGAAGAGCCUUGGUUUUUUG [A84U U106A],-0.185
21,GACCAAUCUGCCCUCAGAGCUCGAGAACAUCUUCGGAUGCAGAGGAGGCAGGCUUCGGUGGCGCGAUAGCGCCAACGUCCUCUACCUCCACUGCAUCCCACCACAUGAUGAUGCCUGAAGAGCCUUGAUUUUUUG [A83U A91C G128A],-2.84
